The source of these data is article PMC11996679, “Molecular basis of human nuclear and mitochondrial tRNA 3′ processing” (Nature Structural & Molecular Biology, 2024).

First the molecules themselves.
B2: Δ1–91 TRMT10C (enzyme, human, UniProt Q7L0Y3 92-403, looked up)
chain: AATREFIEMWRLLGREVPEHITEEELKTLMECVSNTAKKKYLKYLYTKEKVKKARQIKKEMKAAAREEAKNIKLLETTEEDKQKNFLFLRLWDRNMDIAMGWKGAQAMQFGQPLVFDMAYENYMKRKELQNTVSQLLESEGWNRRNVDPFHIYFCNLKIDGALHRELVKRYQEKWDKLLLTSTEKSHVDLFPKDSIIYLTADSPNVMTTFRHDKVYVIGSFVDKSMQPGTSLAKAKRLNLATECLPLDKYLQWEIGNKNLTLDQMIRILLCLKNNGNWQEALQFVPKRKHTGFLEISQHSQEFINRLKKAKT
notes: TRMT10C (MRPP1), human, Δ1–91, used for the structural studies; also called MRPP1

Series [1] concerns the target B2. As to the kind of experiment: cryo-EM structure; mt-RNase Z^Gln: 5–tRNA^Gln–24 first 5′ processed with Δ1–91 TRMT10C–SDR5C1 and Δ1–45 PRORP, then Δ1–31 ELAC2-Asp550Asn added, on ice 60 min; GraFix 10–30% sucrose gradient with 0–0.015% glutaraldehyde, 25 mM Na–HEPES pH 7.5, 20 mM NaCl, 20 μM ZnCl2; pre-mt-tRNA^Gln is part of the complex. Particulars: both partners purified.

In series [2] the target is T1, Δ1–31 ELAC2-Asp550Asn (human, UniProt Q9BQ52 32-826, Asp550Asn).
T1 construct: Cloned in the 438-B vector (Addgene plasmid 55219) with an N-terminal 6xHis tag and a TEV site; the tag was removed with TEV protease; also called ELAC2^mut; ELAC2(D550N); source: Hi-Five insect cells (baculovirus), purified (HisTrap, TEV cleavage, heparin, Superdex 200); not shown: 6xHis, N-terminal, cleaved
T1 sequence (looked up): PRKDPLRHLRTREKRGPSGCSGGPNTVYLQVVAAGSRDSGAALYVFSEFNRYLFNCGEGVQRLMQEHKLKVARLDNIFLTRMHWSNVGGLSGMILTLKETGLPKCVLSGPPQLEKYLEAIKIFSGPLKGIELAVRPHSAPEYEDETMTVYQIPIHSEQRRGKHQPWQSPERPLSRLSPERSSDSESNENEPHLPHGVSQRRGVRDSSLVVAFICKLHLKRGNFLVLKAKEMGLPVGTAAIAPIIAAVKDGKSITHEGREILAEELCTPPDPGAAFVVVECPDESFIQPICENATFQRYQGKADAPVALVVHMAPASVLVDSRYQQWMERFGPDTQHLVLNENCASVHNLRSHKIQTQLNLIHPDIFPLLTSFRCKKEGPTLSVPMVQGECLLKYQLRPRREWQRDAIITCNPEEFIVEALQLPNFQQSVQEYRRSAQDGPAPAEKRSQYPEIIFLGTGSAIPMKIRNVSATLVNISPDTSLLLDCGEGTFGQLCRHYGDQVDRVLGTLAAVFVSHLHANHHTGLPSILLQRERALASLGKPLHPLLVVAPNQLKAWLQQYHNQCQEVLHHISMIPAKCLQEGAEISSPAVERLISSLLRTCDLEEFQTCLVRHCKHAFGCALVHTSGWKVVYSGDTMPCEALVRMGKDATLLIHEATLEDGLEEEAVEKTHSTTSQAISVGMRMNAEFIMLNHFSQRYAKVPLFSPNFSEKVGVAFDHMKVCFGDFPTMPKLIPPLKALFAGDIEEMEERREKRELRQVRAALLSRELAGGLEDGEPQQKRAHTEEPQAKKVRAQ
The description is as above. Conditions: both partners purified.

Series [3] concerns the target T2, ELAC2 (cryo-EM);TRMT10C;SDR5C1 (Homo sapiens;Homo sapiens;Homo sapiens, UniProt Q9BQ52;Q7L0Y3;Q99714 32-826;40-403;1-261, ||).
T2 sequence 1: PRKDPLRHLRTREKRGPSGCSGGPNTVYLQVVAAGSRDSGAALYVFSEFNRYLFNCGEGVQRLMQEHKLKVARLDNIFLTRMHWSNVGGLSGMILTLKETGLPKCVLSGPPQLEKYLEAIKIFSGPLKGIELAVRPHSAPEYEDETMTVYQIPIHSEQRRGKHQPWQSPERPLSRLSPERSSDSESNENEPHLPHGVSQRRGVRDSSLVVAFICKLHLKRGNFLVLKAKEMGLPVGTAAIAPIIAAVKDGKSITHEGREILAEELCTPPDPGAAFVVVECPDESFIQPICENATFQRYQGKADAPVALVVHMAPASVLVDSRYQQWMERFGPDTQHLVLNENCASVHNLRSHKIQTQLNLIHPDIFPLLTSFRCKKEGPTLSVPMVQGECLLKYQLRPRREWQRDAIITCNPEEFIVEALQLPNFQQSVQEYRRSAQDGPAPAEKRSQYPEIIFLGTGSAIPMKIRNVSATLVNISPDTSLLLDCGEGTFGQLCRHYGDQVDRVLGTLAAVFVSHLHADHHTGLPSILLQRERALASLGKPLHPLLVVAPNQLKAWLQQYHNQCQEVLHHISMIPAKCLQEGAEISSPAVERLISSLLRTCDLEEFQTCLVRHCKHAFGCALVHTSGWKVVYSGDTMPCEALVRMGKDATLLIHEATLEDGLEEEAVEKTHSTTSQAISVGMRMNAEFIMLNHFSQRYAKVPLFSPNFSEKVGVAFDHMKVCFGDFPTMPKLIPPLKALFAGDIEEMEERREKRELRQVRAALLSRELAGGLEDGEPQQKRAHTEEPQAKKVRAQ
T2 sequence 2: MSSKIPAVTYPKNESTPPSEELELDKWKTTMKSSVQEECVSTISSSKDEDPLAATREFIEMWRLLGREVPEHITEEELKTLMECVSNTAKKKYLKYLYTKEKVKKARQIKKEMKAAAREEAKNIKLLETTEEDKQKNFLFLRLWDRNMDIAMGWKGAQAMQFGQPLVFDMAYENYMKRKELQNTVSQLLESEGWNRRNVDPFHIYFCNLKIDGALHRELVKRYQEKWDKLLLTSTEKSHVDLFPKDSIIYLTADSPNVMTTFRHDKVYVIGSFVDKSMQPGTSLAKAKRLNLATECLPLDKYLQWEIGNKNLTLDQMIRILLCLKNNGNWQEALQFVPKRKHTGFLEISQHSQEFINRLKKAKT
T2 sequence 3: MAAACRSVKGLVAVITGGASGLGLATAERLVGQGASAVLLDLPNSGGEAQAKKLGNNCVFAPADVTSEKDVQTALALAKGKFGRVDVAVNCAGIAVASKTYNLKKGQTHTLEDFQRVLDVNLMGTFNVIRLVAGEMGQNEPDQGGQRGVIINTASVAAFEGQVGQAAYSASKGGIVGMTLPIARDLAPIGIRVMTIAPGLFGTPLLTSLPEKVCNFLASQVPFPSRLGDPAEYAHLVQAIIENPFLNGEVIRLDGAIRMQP
As to the kind of experiment: cryo-EM structure; mt-RNase Z Gln complex (EMD-19455); FA: 20 mM Tris-HCl pH 8, 80 mM NaCl, 40 mM KCl, 3 mM MgCl2, 5% glycerol, 2 mM DTT; 20 nM RNA; 20 min at 20 C, read at room temperature. Particulars: protein: recombinant;recombinant;recombinant; tags: N-terminal 6xHis-TEV (cleaved);;; copies: 1;1;4; tRNA cloverleaf with canonical elbow.

B1: SDR5C1 (enzyme, human)
chain: MAAACRSVKGLVAVITGGASGLGLATAERLVGQGASAVLLDLPNSGGEAQAKKLGNNCVFAPADVTSEKDVQTALALAKGKFGRVDVAVNCAGIAVASKTYNLKKGQTHTLEDFQRVLDVNLMGTFNVIRLVAGEMGQNEPDQGGQRGVIINTASVAAFEGQVGQAAYSASKGGIVGMTLPIARDLAPIGIRVMTIAPGLFGTPLLTSLPEKVCNFLASQVPFPSRLGDPAEYAHLVQAIIENPFLNGEVIRLDGAIRMQP
notes: also called MRPP2; HSD17B10
B1: in series [1], the binding result was “binds”. B2: in series [2], the binding result is reported as “binds”.

B3: 5-tRNAGln-24 Trailer(Tyr) (structured_RNA)
RNA: GGUGAUAGGAUGGGGUGUGAUAGGUGGCACGGAGAAUUUUGGAUUCUCAGGGAUGGGUUCGAUUCUCAUAGUCCUAGGCUCCGAGGUGAUUUUCAAGCUCG
On to B3, for which the binding result in series [3] is reported as “binds”.
